The text below walks through data of patent publication US20230374116A1.

Where two headings read alike, the source gives them in different places.

For experiment [1], the target named is Beta RBD-Fc.
Experiment [2] has as its target Beta RBD-Fc. This is another data set of the same source.

The Kd is a measure of binding affinity in units of concentration. One may read the koff as the rate constant with which the complex falls apart. High values mean fast dissociation, low ones slow dissociation. As a reminder, the kon is the rate constant with which the complex forms. A lower kon goes with slower complex formation.

B1: 8_G11 (VHH)
VHH: QVQLVESGGGLVQAGGSLRLSCAASGRTITEYTIGWFRQAPGKEREFVTLISKSTDSTWDADSVKGRFTIARDYAKNTVYLQMNSLKPEDTAVYYCAAGSFYGRDSDAGGYDYWGQGTQVTVSS
For the molecule B1, in the experiment with Beta RBD-Fc [1], the Kd stood at 0.443 nM, the T1/2 turned out to be 20 min, the koff turned out to be 0.00057 s⁻¹ and the association rate constant (kon) turned out to be 1.3e+06 M⁻¹ s⁻¹.

B2: 3_C5 (VHH)
VHH: QVQLVESGGGLVQAGGSLRLSCAASGRTLSMRRMSWFRQAPGKEREFVATINWSSGSIYVTDSVKDRFTISRDNAENTVHLQMNMLKPEDTAVYSCAVQVDIGGYLDGYDYWGQGTQVTVSS
In the experiment with Beta RBD-Fc [1], B2 yielded a Kd of 0.895 nM, a T1/2 of 14 min, a koff of 0.0008 s⁻¹ and a kon of 900000 M⁻¹ s⁻¹.

B3: 12_F11 (VHH)
VHH: QVQLVESGGGLVQAGGSLRLSCAASGGAFSTSAMGWFRQAPGKEREFVAVIGWRGVRTYYADSVKGRFTIARDNPQNRVYLEMSSLKSDDTGVYFCAASDGNYGLPWAHFEYDFWGQGIQVTSS
For the molecule B3, in the experiment with Beta RBD-Fc [1], the Kd turned out to be 0.236 nM, the T1/2 stood at 12 min, the koff is 0.00096 s⁻¹ and the kon was found to be 4.1e+06 M⁻¹ s⁻¹.

B4: NbSA_D10 (VHH)
VHH: QVQLVESGGGLVQVGGSLRLSCAVSGRTSSDYSVGWFRRAQGKEREFVAALAWTVGATHYGDSVKGRFTVSRDNAKNMVYLQIDSLKPEDTGVYYCAGRYGAGLGFTERIYDYWGQGTQVTVSS
B4 displayed a Kd with Beta RBD of 0.936 nM. Also, in the experiment with Beta RBD-Fc [2], the T1/2 turned out to be 18 min, the koff stood at 0.0006 s⁻¹ and the on-rate (kon) is 640000 M⁻¹ s⁻¹.

B5: NbSA_A10 (VHH)
VHH: QVQLVESGGGLVQAGDSLRLSCAASGRTFSTTRMAWFRQPPGKEREFVAAIFLNTGTTYYADPVKDRFAISRDNAKNTVYLQMNSLKPEDTAVYYCAAGRFSAAPLTQSTAFESWGQGTQVTVSA
Regarding B5, the Kd with Beta RBD turned out to be 0.03 nM.
